Legend:
[1] = molecular target: T1, recombinant GST-SWP1 fusion protein (Nosema bombycis CVCC 102059, UniProt B3STN5); test: ELISA; indirect ELISA: plates coated with recombinant GST-SWP1 (0.3 ug/well) overnight at 4 C, recombinant 6xHis-tagged antibodies from baculovirus added for 1 h at room temperature, detected with anti-6xHis rabbit mAb; titer; details: both partners purified
T1 construct: spore wall protein 1 (SWP1) of Nosema bombycis, gene cloned by PCR into pGEX-4T-1 (BamH I / XhoI); also called rGST-SWP1; source: E. coli Rosetta, pGEX-4T-1, purified (Glutathione Sepharose)
T1 sequence (B3STN5 20-278): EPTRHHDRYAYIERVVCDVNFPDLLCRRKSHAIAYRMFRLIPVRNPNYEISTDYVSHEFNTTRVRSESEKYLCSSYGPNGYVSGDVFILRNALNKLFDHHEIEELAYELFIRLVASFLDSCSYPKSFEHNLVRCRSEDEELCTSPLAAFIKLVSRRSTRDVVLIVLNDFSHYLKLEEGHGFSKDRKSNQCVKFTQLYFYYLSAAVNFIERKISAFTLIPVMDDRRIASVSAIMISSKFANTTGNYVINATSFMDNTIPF

[2] = molecular target: T2, Nosema bombycis spore wall protein 1, native (Nosema bombycis (strain CQ1 / CVCC …, UniProt B3STN5)); test: Western blot; alkali-soluble germination (spore) proteins separated by SDS-PAGE on PVDF; culture supernatant or lysate of G9-Neo, scFvG9-Neo and NscFvG9-Neo BmE cells used as primary antibody; details: partners not purified
T2 construct: spore wall protein 1 (SWP1) of Nosema bombycis, gene locus NBO_552g0005; also called SWP1; native SWP1
T2 sequence (B3STN5 20-278): as above

[3] = molecular target: T3, prokaryotic-expressed recombinant SWP1 (Nosema bombycis CVCC 102059, UniProt B3STN5); test: Western blot; rSWP1 separated by SDS-PAGE; hemolymph or cell lysate of transgenic silkworms used as primary antibody; details: one partner purified
T3 construct: spore wall protein 1 (SWP1) of Nosema bombycis, gene cloned by PCR from cDNA into pET30a (BamH I / HindIII); also called rSWP1; source: E. coli Rosetta, pET30a, purified (Ni-NTA)
T3 sequence (B3STN5 20-278): as above

Binder | binding result [2] | binding result [3] | other results
recombinant scFvG9 from the baculovirus expression system (scFv, V domains shown, variable domain of the heavy chain of m1; (G4S)3 linker; variable domain of the light chain of m1; The construct contains a signal peptide and a 6xHis tag; Detected in the ELISA by an anti-6xHis antibody; also called rscFvG9; pFast-rscFvG9; source: Bac-to-Bac baculovirus system, insect cells (Sf-900 III / Sf9), serum-free medium, purified (Ni-NTA); not shown: His6, C-terminal, kept) VH: QVQLQQSGAELARPGASVKMSCKASGYTFTGFSIHWVKQRPGQGLEWIGYINPSSAYTKYNQNFKDKATLTADKSSSTAYMQLNSLTSDDSAVYYCAYRYDVGDYWGQGTSVTVSS VL: DIVITQSPSSLAVSAGEKVTLSCKSSQSLFNSRTRKNYLAWYQQKPGQSPKLLIYWASTRESGVPDRFTGSGSGTDFTLTISSVQAEDLAVYYCKQSYYLWTFGGGAKLEIK |  |  | binding result [1]: binds
scFvG9 expressed in scFvG9-Neo transgenic BmE cells (scFv, V domains shown, variable domain of the heavy chain of m1; (G4S)3 linker; variable domain of the light chain of m1; The construct encodes an N-terminal secretion signal peptide from the CL40 anti-EBV/HHV-4 gHgL immunoglobulin heavy chain) VH: QVQLQQSGAELARPGASVKMSCKASGYTFTGFSIHWVKQRPGQGLEWIGYINPSSAYTKYNQNFKDKATLTADKSSSTAYMQLNSLTSDDSAVYYCAYRYDVGDYWGQGTSVTVSS VL: DIVITQSPSSLAVSAGEKVTLSCKSSQSLFNSRTRKNYLAWYQQKPGQSPKLLIYWASTRESGVPDRFTGSGSGTDFTLTISSVQAEDLAVYYCKQSYYLWTFGGGAKLEIK | binds |  | 
NscFvG9 expressed in NscFvG9-Neo transgenic BmE cells (scFv, V domains shown, variable domain of the heavy chain of m1; (G4S)3 linker; variable domain of the light chain of m1; scFvG9 with the signal peptide of VH removed, expressed intracellularly; also called scFv without the secretory signal peptide) VH: QVQLQQSGAELARPGASVKMSCKASGYTFTGFSIHWVKQRPGQGLEWIGYINPSSAYTKYNQNFKDKATLTADKSSSTAYMQLNSLTSDDSAVYYCAYRYDVGDYWGQGTSVTVSS VL: DIVITQSPSSLAVSAGEKVTLSCKSSQSLFNSRTRKNYLAWYQQKPGQSPKLLIYWASTRESGVPDRFTGSGSGTDFTLTISSVQAEDLAVYYCKQSYYLWTFGGGAKLEIK | binds |  | 
recombinant G9 intact antibody (rG9H + rG9L) from the baculovirus expression system (antibody, V domains shown, as the heavy chain of m1 (rG9H); as the light chain of m1 (rG9L); rG9H contains a signal peptide at the 5' end and is driven by the polyhedrin promoter; rG9L is driven by the p10 promoter; Detected in the ELISA by an anti-6xHis antibody; also called pFast-rG9; source: Bac-to-Bac baculovirus system, insect cells (Sf-900 III / Sf9), serum-free medium, purified (Ni-NTA); not shown: His6, C-terminal, …) VH: QVQLQQSGAELARPGASVKMSCKASGYTFTGFSIHWVKQRPGQGLEWIGYINPSSAYTKYNQNFKDKATLTADKSSSTAYMQLNSLTSDDSAVYYCAYRYDVGDYWGQGTSVTVSS VL: DIVITQSPSSLAVSAGEKVTLSCKSSQSLFNSRTRKNYLAWYQQKPGQSPKLLIYWASTRESGVPDRFTGSGSGTDFTLTISSVQAEDLAVYYCKQSYYLWTFGGGAKLEIK |  |  | binding result [1]: binds
G9 intact antibody expressed in G9 transgenic silkworm (antibody, V domains shown, as the heavy chain of m1 (G9H); as the light chain of m1 (G9L); Same IE1-G9H-SV40 + IE1-G9L-SV40 cassettes as m2, in pBac[A3-EGFP]; G9H has a signal peptide at the 5' end; It is not clear whether the light chain also carries a signal peptide and His tag; source: transgenic silkworm (Bombyx mori), hemolymph and cell lysate) VH: QVQLQQSGAELARPGASVKMSCKASGYTFTGFSIHWVKQRPGQGLEWIGYINPSSAYTKYNQNFKDKATLTADKSSSTAYMQLNSLTSDDSAVYYCAYRYDVGDYWGQGTSVTVSS VL: DIVITQSPSSLAVSAGEKVTLSCKSSQSLFNSRTRKNYLAWYQQKPGQSPKLLIYWASTRESGVPDRFTGSGSGTDFTLTISSVQAEDLAVYYCKQSYYLWTFGGGAKLEIK |  | binds | 
scFvG9 expressed in scFvG9 transgenic silkworm (scFv, V domains shown, variable domain of the heavy chain of m1; (G4S)3 linker; variable domain of the light chain of m1; Same IE1-scFvG9-SV40 cassette as m3, which encodes a secretion signal peptide; also called scFv9; source: transgenic silkworm (Bombyx mori), hemolymph) VH: QVQLQQSGAELARPGASVKMSCKASGYTFTGFSIHWVKQRPGQGLEWIGYINPSSAYTKYNQNFKDKATLTADKSSSTAYMQLNSLTSDDSAVYYCAYRYDVGDYWGQGTSVTVSS VL: DIVITQSPSSLAVSAGEKVTLSCKSSQSLFNSRTRKNYLAWYQQKPGQSPKLLIYWASTRESGVPDRFTGSGSGTDFTLTISSVQAEDLAVYYCKQSYYLWTFGGGAKLEIK |  | binds | 
NscFvG9 expressed in NscFvG9 transgenic silkworm (scFv, V domains shown, variable domain of the heavy chain of m1; (G4S)3 linker; variable domain of the light chain of m1; Same IE1-NscFvG9-SV40 cassette as m4 (no signal peptide), in pBac[3xP3-EGFP]; also called NscFv9; source: transgenic silkworm (Bombyx mori), cell lysate) VH: QVQLQQSGAELARPGASVKMSCKASGYTFTGFSIHWVKQRPGQGLEWIGYINPSSAYTKYNQNFKDKATLTADKSSSTAYMQLNSLTSDDSAVYYCAYRYDVGDYWGQGTSVTVSS VL: DIVITQSPSSLAVSAGEKVTLSCKSSQSLFNSRTRKNYLAWYQQKPGQSPKLLIYWASTRESGVPDRFTGSGSGTDFTLTISSVQAEDLAVYYCKQSYYLWTFGGGAKLEIK |  | binds | 
G9 intact antibody expressed in G9-Neo transgenic BmE cells (antibody, V domains shown, as the heavy chain of m1 (G9H); as the light chain of m1 (G9L); G9H was amplified with a signal peptide at the 5' end and a 6xHis tag at the 3' end; The light chain was made 'similarly', so it is not clear whether it also carries them; IE1 promoter; also called G9H + G9L) VH: QVQLQQSGAELARPGASVKMSCKASGYTFTGFSIHWVKQRPGQGLEWIGYINPSSAYTKYNQNFKDKATLTADKSSSTAYMQLNSLTSDDSAVYYCAYRYDVGDYWGQGTSVTVSS VL: DIVITQSPSSLAVSAGEKVTLSCKSSQSLFNSRTRKNYLAWYQQKPGQSPKLLIYWASTRESGVPDRFTGSGSGTDFTLTISSVQAEDLAVYYCKQSYYLWTFGGGAKLEIK | binds |  | 
